In experiment [1] the target is Trigger Factor (UniProt P0A850). The experiment can be described thus: high-speed AFM (HS-AFM); TF alone at 5 uM on mica; projected area and height compared with monomers.
The target of experiment [2] is ribosome-nascent chain complex (not stated | E. coli) (UniProt P0ADZ0). The experiment is described as follows: high-speed AFM (HS-AFM); RNC (2 nM) on mica, TF (1 uM) in the imaging solution, physiological buffer; 1 frame/s, 22-25 °C; dwell time analysis of single binding events.
In experiment [3] the target is native 70S ribosome from E. coli (E. coli) (UniProt P0ADZ0). The experiment is described as follows: high-speed AFM (HS-AFM); 70S ribosomes without nascent chain partially immobilised on mica, TF in the imaging solution at a molar ratio of 200:1 TF:ribosome; 1 frame/s, 22-25 °C.
Experiment [4] deals with Trigger factor (Escherichia coli) (UniProt P0A850). To be noted: cited from earlier work.

Chain of Trigger Factor (from UniProt P0A850 1-432) (natural protein) (P0A850 whole entry): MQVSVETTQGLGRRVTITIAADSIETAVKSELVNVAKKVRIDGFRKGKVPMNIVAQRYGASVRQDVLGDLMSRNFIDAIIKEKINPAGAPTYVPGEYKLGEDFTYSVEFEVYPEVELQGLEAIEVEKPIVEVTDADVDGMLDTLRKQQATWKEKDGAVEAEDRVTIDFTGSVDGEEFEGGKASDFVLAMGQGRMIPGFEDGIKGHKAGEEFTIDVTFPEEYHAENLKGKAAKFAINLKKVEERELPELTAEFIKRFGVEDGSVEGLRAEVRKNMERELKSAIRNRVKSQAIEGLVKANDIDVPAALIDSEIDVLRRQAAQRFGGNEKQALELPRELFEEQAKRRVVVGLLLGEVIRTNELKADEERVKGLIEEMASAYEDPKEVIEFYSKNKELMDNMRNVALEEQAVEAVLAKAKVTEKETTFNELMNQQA
Chain of Trigger factor (P0A850 whole entry): as above

On to “Trigger Factor (from UniProt P0A850 1-432) (natural protein)”, for which the stoichiometry N (in general, a count of units in the complex or per binding partner) in experiment [1] came to 2. In experiment [2], this substance registered a duration of association of more than 5 s, a duration of individual binding events of more than 30 s, a longest interaction time (exit-tunnel site) of less than 80 s and a longest interaction time (peripheral site) of more than 30 s. In experiment [2], the mean interaction time (exit-tunnel site) was 8 s, the mean interaction time (peripheral site) came out at 3.9 s and the stoichiometry N is 2. In experiment [3], the duration of association was less than 5 s.

In the case of Trigger factor (from UniProt P0A850), the Kd (commonly the constant that tells how readily two partners part at equilibrium) in experiment [4] was 1500 nM.

The record behind these values is paper PMC12752688.
